The numbers were not newly measured in publication PMC8811192, which cites them from elsewhere.

Read-outs that look alike come from different tables or passages of the source.

Data set [1] concerns the target OrxA (Homo sapiens) (UniProt O43612).
Data set [2] has the same target. The source holds these as a separate data set.
Data set [3] concerns the target OrxB (Homo sapiens) (UniProt O43612).

Broadly, the Kd is a measure of binding affinity in units of concentration. For the substance OrxR1 (from UniProt O43613), in data set [1], the Kd is 25 nM. Take OrxR2 (from UniProt O43614): the Kd in data set [2] and in data set [3] was 40 nM in each case.
